Results: patent US20260258141A1 (BIOCYTOGEN PHARMACEUTICALS BEIJING, published 2026)

Assays:
[1] = target: T1, His-tagged human IGF1R protein (ACRO Biosystems Inc., Cat #: IGR-H5229) (human, UniProt P08069 31-932); experiment: SPR (Biacore 8K) on captured hIGF1R-His, binder injected second (Analyte 2); competitor injected first (Analyte 1): 10D1
T1 construct: Bought protein; also called hIGF1R-His; not shown: His tag
Method: (§1) Epitope binding assays were performed using Biacore™ 8K biosensor to determine whether two anti-IGF1R antibodies target the same or overlapping epitopes. 1×HBS-EP+ buffer (10 mM 4-(2-hydroxyethyl)-1-piperazineethanesulfonic acid (HEPES), 150 mM NaCl, 3 mM ethylenediaminetetraacetic acid (EDTA) and 0.05% P20, pH7.4) diluted from HBS-EP+buffer (10×) was used as the running buffer throughout the experiment. About 50 RU of hIGF1R-His was captured at a flow rate of 10 μL/min, and 200 nM of the tested antibody (Analyte 1) was injected at a flow rate of 30 uL/min to bind the ligand. Another comparison antibody (Analyte 2) was injected under the same conditions to determine whether the binding of different antibodies interfered with each other. The binding time was 180 s for each antibody.
(§2) The binding value of each antibody was obtained using Biacore Insight Evaluation (Version: 2.0.15.12933). To quantify the interference of one antibody binding to another, a binding ratio was calculated to compare each pair of antibodies. The binding ratio is defined as the binding value of the second antibody (Analyte 2) divided by the binding value of the first antibody (Analyte 1). The threshold to determine the block or non-block is 0.3.

[2] = target: T2, human insulin receptor INSR on cells (human, UniProt P06213 28-1382); experiment: flow cytometry on CHO-S-hINSR cells
T2 construct: Expressed on CHO-S cells; also called hINSR; CHO-S-hINSR cells
Method: (§3) INSR (insulin receptor) and IGF1R are both members of the superfamily of receptor tyrosine kinases (RTKs). The binding activity of anti-IGF1R antibodies to human IGF1R, human INSR and monkey IGF1R was verified by flow cytometry. Briefly, CHO-S-hIGF1R cells (expressing human IGF1R (SEQ ID NO: 45), CHO-S-fasIGF1R cells (expressing cynomolgus monkey IGF1R (SEQ ID NO: 46) and CHO-S-hINSR (expressing SEQ ID NO: 47) were plated in a 96-well plate at a density of 2×10⁵ cells/well respectively. Purified anti-IGF1R antibody with a concentration of 20 μg/mL was added to each well and was incubated at 4° C. for 30 minutes. Then, after one wash with PBS, the cells were incubated with the secondary antibody Alexa Fluor® 647 anti-human IgG Fcγ (Jackson ImmunoResearch Laboratories, Inc., Cat #: 109-606-170) at 4° C. for 15 minutes before flow cytometry analysis. Human IgG1 was used as ISO control.

[3] = target: T1, His-tagged human IGF1R protein (ACRO …); experiment: SPR (Biacore 8K), antibody captured on Protein A chip, antigen as analyte, 1:1 model
Method: The affinity of the anti-IGF1R antibodies to His-tagged human IGF1R protein (hIGF1R-His, ACRO Biosystems Inc., Cat #: IGR-H5229) and His-tagged cynomolgus monkey IGF1R protein (cIGF1R-His, ACRO Biosystems Inc., Cat #: IGR-C5225) were measured using surface plasmon resonance (SPR) using Biacore™ (Biacore, Inc., Piscataway N.J.) 8K biosensor equipped with pre-immobilized Protein A sensor chips.
Purified anti-IGF1R antibodies were captured on the Protein A chip (Series S Sensor Chip Protein A) for the detection. 1 μg/mL or 10 μg/mL purified anti-IGF1R antibodies was loaded at 10 μL/min to bind to a gradient concentration of recombinant hIGF1R-His or cIGF1R-His (400 nM, 200 nM, 100 nM, 50 nM, 25 nM, 12.5 nM, 6.25 nM, 3.125 nM). The flow rate was 30 μL/min, the binding and dissociation time were set to 180 s and 800 s or 1200 s, respectively. The chip was regenerated after the last injection of each titration with a glycine solution (pH 2.0) at 30 μL/min for 30 seconds.

[4] = target: T1, His-tagged human IGF1R protein (ACRO …); experiment: SPR (Biacore 8K) on captured hIGF1R-His, binder injected second (Analyte 2); competitor injected first (Analyte 1): 12A4
Method: as §1, §2

[5] = target: human IGF1R (insulin-like growth factor 1 receptor) on cells (human, UniProt P08069 31-1367); experiment: cell-based or functional assay
[6] = target: T3, cynomolgus monkey IGF1R on cells (cynomolgus monkey, UniProt P08069 31-1367 (human entry)); experiment: flow cytometry on CHO-S-fasIGF1R cells, antibody 20 µg/mL
T3 construct: Expressed on CHO-S cells; also called fasIGF1R; CHO-S-fasIGF1R cells
Method: as §3

T2 sequence (P06213 other isoform, or with tags, fused parts or gaps limits assumed): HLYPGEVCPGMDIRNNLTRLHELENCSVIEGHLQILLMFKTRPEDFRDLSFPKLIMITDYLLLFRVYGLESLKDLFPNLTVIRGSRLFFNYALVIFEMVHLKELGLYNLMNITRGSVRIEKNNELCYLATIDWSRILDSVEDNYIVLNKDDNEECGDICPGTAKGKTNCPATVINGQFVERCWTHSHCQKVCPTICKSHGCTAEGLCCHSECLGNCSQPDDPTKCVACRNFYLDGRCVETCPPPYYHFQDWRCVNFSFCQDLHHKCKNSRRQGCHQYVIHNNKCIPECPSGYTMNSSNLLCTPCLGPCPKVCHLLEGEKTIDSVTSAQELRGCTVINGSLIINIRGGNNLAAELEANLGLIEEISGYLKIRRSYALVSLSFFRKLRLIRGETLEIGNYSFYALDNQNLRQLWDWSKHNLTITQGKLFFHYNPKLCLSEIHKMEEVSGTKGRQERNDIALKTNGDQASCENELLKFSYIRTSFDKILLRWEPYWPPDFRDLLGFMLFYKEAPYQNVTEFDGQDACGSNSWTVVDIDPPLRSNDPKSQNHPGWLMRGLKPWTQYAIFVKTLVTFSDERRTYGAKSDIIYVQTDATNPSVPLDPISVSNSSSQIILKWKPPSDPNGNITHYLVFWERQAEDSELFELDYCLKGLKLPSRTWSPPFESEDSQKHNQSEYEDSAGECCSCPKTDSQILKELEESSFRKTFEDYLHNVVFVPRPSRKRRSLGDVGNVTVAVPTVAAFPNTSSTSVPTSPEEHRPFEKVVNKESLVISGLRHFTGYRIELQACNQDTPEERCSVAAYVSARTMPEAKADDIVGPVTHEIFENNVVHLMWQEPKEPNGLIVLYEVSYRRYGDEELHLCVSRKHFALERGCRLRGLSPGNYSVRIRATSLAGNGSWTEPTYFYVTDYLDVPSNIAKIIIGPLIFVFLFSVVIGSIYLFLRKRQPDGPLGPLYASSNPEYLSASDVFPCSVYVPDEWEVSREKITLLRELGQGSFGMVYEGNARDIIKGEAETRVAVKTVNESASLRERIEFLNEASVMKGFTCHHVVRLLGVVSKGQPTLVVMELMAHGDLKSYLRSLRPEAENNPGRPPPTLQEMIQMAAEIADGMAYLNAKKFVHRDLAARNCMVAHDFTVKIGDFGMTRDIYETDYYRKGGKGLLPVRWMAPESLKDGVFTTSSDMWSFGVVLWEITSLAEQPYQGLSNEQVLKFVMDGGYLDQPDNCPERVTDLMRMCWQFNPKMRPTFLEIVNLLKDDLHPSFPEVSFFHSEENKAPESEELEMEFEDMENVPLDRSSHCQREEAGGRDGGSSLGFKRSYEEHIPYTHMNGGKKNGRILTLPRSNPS
human IGF1R (insulin-like growth factor 1 receptor) on cells, sequence (P08069 31-1367 limits assumed): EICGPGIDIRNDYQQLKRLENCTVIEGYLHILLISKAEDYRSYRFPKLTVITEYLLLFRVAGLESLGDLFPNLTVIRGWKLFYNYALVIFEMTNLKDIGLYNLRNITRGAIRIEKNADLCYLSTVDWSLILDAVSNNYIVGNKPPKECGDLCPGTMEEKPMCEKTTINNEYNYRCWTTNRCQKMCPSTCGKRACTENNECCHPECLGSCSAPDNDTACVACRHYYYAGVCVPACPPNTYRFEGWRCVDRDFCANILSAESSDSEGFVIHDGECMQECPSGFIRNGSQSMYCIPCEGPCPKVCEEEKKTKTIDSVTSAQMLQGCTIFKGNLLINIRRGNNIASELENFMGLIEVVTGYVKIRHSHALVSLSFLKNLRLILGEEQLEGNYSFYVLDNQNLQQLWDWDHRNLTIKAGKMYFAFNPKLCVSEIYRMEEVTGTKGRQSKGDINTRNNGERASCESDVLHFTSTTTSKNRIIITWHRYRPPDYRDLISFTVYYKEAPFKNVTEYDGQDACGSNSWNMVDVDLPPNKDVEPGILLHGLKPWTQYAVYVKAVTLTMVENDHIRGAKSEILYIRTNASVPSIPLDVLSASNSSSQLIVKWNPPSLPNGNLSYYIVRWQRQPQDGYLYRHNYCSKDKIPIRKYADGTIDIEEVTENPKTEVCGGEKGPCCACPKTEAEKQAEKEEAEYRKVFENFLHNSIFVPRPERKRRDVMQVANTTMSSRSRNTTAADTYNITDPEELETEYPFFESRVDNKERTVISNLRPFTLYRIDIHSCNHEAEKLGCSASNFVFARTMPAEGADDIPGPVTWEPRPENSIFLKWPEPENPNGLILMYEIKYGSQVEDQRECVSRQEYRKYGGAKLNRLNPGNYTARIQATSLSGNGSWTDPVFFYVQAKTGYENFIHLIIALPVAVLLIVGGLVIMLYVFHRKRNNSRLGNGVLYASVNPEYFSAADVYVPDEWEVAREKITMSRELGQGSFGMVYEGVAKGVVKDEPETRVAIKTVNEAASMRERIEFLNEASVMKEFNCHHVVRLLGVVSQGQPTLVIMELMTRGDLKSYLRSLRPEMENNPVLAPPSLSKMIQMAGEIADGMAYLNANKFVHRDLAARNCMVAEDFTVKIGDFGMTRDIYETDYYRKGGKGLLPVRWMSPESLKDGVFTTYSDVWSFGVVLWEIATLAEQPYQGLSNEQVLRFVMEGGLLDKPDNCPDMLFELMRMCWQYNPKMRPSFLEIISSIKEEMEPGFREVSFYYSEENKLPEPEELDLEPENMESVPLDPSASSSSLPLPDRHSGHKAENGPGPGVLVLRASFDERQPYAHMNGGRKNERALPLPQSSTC
T3 sequence (P08069 other isoform, or with tags, fused parts or gaps limits assumed): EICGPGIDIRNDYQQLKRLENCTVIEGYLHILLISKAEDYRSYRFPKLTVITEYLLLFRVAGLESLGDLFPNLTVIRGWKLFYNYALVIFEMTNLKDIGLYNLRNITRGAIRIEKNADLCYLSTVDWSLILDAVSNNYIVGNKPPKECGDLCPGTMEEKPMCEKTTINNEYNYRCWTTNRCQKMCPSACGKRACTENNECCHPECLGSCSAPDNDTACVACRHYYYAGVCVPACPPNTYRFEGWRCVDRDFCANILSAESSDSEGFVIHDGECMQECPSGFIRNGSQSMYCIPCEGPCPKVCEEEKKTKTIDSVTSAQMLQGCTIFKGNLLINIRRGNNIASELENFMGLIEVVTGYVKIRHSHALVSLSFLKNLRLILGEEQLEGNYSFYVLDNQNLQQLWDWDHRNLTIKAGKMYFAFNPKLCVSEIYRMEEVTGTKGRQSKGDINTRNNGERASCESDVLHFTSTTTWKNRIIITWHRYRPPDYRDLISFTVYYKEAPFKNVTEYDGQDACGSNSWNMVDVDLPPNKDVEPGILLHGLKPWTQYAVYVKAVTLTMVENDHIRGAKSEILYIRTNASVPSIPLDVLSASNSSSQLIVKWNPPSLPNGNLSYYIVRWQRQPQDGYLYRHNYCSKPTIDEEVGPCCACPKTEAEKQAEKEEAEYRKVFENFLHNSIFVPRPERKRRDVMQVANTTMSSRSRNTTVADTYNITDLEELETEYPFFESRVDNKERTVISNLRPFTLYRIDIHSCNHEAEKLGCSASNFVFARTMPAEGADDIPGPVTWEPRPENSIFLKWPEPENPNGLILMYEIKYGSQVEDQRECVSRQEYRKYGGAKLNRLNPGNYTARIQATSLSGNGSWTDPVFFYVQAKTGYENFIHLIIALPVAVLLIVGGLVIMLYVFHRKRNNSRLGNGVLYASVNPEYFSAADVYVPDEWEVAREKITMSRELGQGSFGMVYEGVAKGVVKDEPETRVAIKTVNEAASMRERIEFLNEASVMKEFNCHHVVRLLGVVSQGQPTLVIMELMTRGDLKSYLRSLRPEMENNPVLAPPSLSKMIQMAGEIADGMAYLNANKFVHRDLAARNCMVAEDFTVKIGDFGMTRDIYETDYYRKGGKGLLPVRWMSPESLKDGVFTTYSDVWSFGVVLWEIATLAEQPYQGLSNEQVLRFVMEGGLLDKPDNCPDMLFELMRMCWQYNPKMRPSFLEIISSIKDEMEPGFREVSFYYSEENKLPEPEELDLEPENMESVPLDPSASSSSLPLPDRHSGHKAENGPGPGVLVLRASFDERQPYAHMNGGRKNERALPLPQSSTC
T1 sequence (P08069 31-932): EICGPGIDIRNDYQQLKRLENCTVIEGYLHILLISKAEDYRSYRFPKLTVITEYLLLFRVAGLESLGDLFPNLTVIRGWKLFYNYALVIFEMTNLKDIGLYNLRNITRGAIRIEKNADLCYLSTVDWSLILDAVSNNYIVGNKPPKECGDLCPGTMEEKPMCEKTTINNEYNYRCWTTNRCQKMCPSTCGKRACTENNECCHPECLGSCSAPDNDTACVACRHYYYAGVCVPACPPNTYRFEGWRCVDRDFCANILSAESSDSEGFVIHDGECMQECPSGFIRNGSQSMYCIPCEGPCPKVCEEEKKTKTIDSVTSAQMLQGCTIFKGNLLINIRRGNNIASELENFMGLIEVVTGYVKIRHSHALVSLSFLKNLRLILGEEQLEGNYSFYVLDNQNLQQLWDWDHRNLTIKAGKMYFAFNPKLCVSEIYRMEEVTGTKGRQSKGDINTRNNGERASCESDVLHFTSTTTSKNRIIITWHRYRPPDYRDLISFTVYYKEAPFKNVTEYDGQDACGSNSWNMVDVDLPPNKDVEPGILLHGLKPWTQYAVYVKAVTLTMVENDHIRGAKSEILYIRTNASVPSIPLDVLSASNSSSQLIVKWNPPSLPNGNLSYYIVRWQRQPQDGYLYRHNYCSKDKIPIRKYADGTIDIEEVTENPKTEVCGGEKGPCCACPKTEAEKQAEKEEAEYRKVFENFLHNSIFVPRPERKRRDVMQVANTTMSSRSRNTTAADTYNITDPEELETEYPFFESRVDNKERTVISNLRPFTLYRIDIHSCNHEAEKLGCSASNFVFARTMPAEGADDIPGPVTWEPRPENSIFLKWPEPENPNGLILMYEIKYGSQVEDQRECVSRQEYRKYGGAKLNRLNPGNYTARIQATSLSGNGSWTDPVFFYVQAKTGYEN

| Binder | binding ratio (Analyte 2 / Analyte 1) [1] | binding result [2] | Kd [3] [nM] | koff [3] [s⁻¹] | kon [3] [M⁻¹ s⁻¹] | binding ratio (Analyte 2 / Analyte 1) [4] | IC50 of inhibition of IGF-1-induced OPN secretion (U2OS-TSHR cells) [5] [nM] | Percentage of positive cells [6] [%] |
| --- | --- | --- | --- | --- | --- | --- | --- | --- |
| anti-IGF1R antibody 12A4 (antibody, V domains shown) VH: EVQLVQSGGGEIRPGGSLRLSCAASGFTFADYGMSWVRQAPGEGLEWVSEIDWTGGSKLYADSVKGRFTISRDNAKNSLFLQMNSLRAEDTALYYCVRDRGAVSPKYYYYGMDVWGQGTTVTVSS VL: EIVLTQSPSSLSASVGDRVTITCRASQGIRNDLGWYQQKPGKAPKRLIYAASRLQSGVPSRFSGSGSGTDFTLTISSLQPEDFATYYCLQHNSYPYTFGQGTKLEIK | -0.05 | no binding (tested: 20 µg/mL) | 0.214 | 5.69e-06 | 26600 | -0.01 | 0.068 | 54.4 |
| anti-IGF1R antibody 12D1 (antibody, human IgG1, V domains shown) VH: QVQLVESGGGVVRPGGSLRLSCAASGFTFDDYGMSWVRQVPGKGLEWVSGINWNGGSTDYADSVKGRFTISREKAKNSLYLQMNSLRAEDTALYYCVRDRGAVTRRYYYYGMDVWGQGTTVTVSS VL: DIQMTQSPSSLSASVGDRVTITCRASQDIRNDLGWYQLKPGKAPKRLIYAASRLQSGVPSRFSGSGSGTEFTLTISSLQPEDFATYYCLQHNSYPYTFGQGTKLEIK | -0.04 | no binding (tested: 20 µg/mL) | 1.72 | 1.05e-05 | 6120 | 0 | 0.096 | 60.7 |
| anti-IGF1R antibody 10D1 (antibody, human IgG1, V domains shown) VH: QVQLQQSGGGVVRPGGSLRLSCAASGFTFADYGMSWVRQVPGKGLEWVSGINWNGGSTDYADSVKGRFTISRDNAKHSLYLQMNSLRAEDTAFYYCARDRGAVSRRYYYYGMDVWGLGTTVTVSS VL: AIQLTQSPSSLSASVGDRVTITCRASQDIRNDLGWYQLKPGKAPKRLIYAASRLQSGVPSGFSGSGSGTEFTLTISSLQPEDFATYYCLQHNSYPYTFGQGTKLEIK | -0.02 | no binding (tested: 20 µg/mL) | 1.63 | 1.26e-05 | 7750 | 0.02 | 0.046 | 64.8 |
| anti-IGF1R antibody 10G1 (antibody, human IgG1, V domains shown) VH: QVQLVESGGGLVKPGGSLRLSCAASEFTFSDYYMSWIRQSPGKGLEWVSYISNSGSFTNYADSVKGRFTISRDNAKNSLYLQMNSLRAEDSAIYYCVRDQAPVTSKYYYYGMDVWGQGTTVTVSS VL: EIVLTQSPSSLSASVGDRVTITCRASQGIRNDFAWYQQKPGKAPKRLIYAASRLQRGVPSRFSGSGSGTEFTLTISSLQPEDFATYYCLQHNSYPYTFGQGTKLEIK | -0.04 | no binding (tested: 20 µg/mL) | 3.99 | 0.000162 | 40700 | -0.03 | 0.13 | 73.9 |
